Experimental findings from patent US20210388074A1 (LUDWIG INSTITUTE FOR CANCER RESEARCH, published 2021) are described below.

Residue numbers refer to the chain shown, from its start. Numbers in names are those of the source.

In general, Kd refers to the constant that tells how readily two partners part at equilibrium. Low readings indicate tighter binding, high ones weaker binding.

The target of test [1] is T1, TGFb3 (species not stated) (Homo sapiens (Human), UniProt P10600 301-412).
T1 construct: also called TGFβ3; TGF-β3
T1 sequence: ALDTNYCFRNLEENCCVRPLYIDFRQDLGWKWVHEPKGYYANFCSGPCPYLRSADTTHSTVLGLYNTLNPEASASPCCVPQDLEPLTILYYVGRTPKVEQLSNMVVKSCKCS
Put plainly: SPR (Biacore), single-cycle kinetics; TGFb3 immobilized directly, Fab as soluble analyte. As to the method:
TGFb3 immobilized directly; Fab as soluble analyte (0 2.5 nM). Single cycle kinetics were conducted as follows Contact: 360 s; Dissociation: 500 s; Flow rate: 30 μl/min.
Binding affinities of the Fabs were in the pM range.
A general note: In SPR one partner is held on a chip, and binding of the other changes the refractive index at the surface.

The target of test [2] is T2, TGFb3 (species not stated) (UniProt P10600 301-412).
T2 chain: T1 sequence
Put plainly: Biacore single-cycle kinetics.

The target of test [3] is T3, human recombinant TGF-b3 (Shenandoah Biotechnology, cat. #100-109) (human, UniProt P10600 301-412).
T3 construct: Bought recombinant protein, coated on ELISA plates; also called TGF-β3; hTGF-ß3
T3 sequence: T1 sequence
Put plainly: competition ELISA on hTGF-ß3-coated plate; competitor biotinylated murine 1901. As to the method: Nunc Maxisorb ELISA plates were coated overnight at 8° C. with 0.5 μg/ml hTGF-ß1 (Peter Sun, NIH) or hTGF-ß3 (Shenandoah Biotech) at 0.5 μg/ml in 40 mM glycine buffer pH 9. Plates were washed and blocked with 10% FCS for 1 h at 37° C. […] After incubation for 2h at 37° C. plates were washed, Avidine-HRP added and incubated for 1 h at 37° C. Plates washed again, TMB substrate was added and bound biotinylated antibody was quantitated by measuring color development in an ELISA reader at a wave length of 450 nm.
The potency of the humanized LCR1901 IgG4 antibody variants to compete with the parental murine antibody for binding to TGFb3 was assessed by ELISA.
(An ELISA detects its analyte on a solid surface through an enzyme-linked reagent.)

Test [4] has as its target T3, human recombinant TGF-b3 (Shenandoah …). Briefly: TGFβ specificity ELISA; HEK293-6E supernatant.
Test [5] has the same target. Put plainly: ELISA; scFv culture on plate-coated TGF-b3, anti-cmyc detection. As to the method: (§1) To perform the ELISA a 96-well maxisorp Nunc-immunoplate (Thermo Scientific, cat. #2022-10) was coated with 50 μl/well of human recombinant TGF-b1 (Acrobiosystems, cat. #TG1-H4212), TGF-b2 (R&D Systems, cat. #302-B2-010) and human recombinant TGF-b3 (Shenandoah Biotechnology, cat. #100-109) at 500 ng/ml in PBS at 4° C. overnight. Wells were blocked by the direct addition of 230 μl of block solution (5% skimmed milk/0.05% Tween20 in PBS) without first washing the plate. Blocking was carried out for 45 min with gentle agitation. Concurrently, the bacterial cultures containing the expressed scFv and the rescued phage were blocked by the direct addition of 120 μl of block solution. The blocked maxisorp plate was washed 3× with PBST (PBS+0.1% Tween20) before applying 150 μl of blocked scFv or phage culture to the wells. Incubation was performed for 1 h at room temperature with gentle agitation before washing of the wells with 4×PBST.
(§2) For the scFv ELISA, 100 μl of primary mouse 9E10 anti-cmyc Ab diluted 1/1000 in PBS+1% BSA was added to wells, followed by a 1 h incubation at room temperature with gentle agitation. […] The ELISA was developed by the addition of 100 μl/well of TMB substrate (ThermoFischer Scientific, cat. #34021), stabilized with 50 μl/well of stop solution (2N sulfuric acid) and absorbance signals read at 450 nm and 620 nm.

Test [6] has the same target. Briefly: phage ELISA on plate-coated TGF-b3, anti-fd bacteriophage detection. As to the method: as §1
For the phage ELISA, 100 μl of primary rabbit anti-fd bacteriophage Ab (Sigma, cat. #B7786) diluted 1/1000 in PBS+1% BSA was added to wells followed by a 1 h incubation at room temperature with gentle agitation. The plate was washed 4× with PBST before the addition of 100 μl of secondary mouse anti-rabbit IgG (Υ-chain specific) HRP conjugate (Sigma, cat. #A1949) diluted 1/15000 in PBS+1% BSA. […]

The target is the same in test [7]. Put plainly: ELISA; scFv culture on plate-coated TGF-b3. As to the method:
as §1, §2

B1: 1901-1D Fab (LCR1901_VH_1G10m_03(K)-LCR1901_VK_GLv1_03(F) expressed as Fab) (Fab, V domains shown)
VH: QVQLVQSGAEVKKPGSSVKVSCKASGYTFSSSWIHWVKQRPGKGLEWIGRIYPGDGDTDYSEKFQGRVTITADKSTSTAYMELSSLRSEDTAVYYCARRMITTQAALDYWGQGTLVTVSS
VL: DIQMTQSPSSLSASVGDRVTITCKASQSVINAVAWYQQKPGQSPKLLIYYASNRYTGVPDRFSGSGYGTDFTFTISSLQAEDVAVYYCQQDYSSPYTFGGGTKVEIK
In the case of B1, the binding result in test [1] was “binds”. Moreover, the Kd in test [2] is 0.364 nM.

B2: 1901-1B Fab (LCR1901_VH_1G10m_03(K)-LCR1901_VK_GLv1_05(H) expressed as Fab) (Fab, V domains shown)
VH: B1 VH
VL: B1 VL with Q42K, S43A
The molecule B2 had a Kd in test [2] of 0.285 nM.

B3: 1901-1A Fab (LCR1901_VH_1G10m-LCR1901_VK_GLv1_05(H) expressed as Fab) (Fab, V domains shown)
VH: B1 VH with K38R, R40A, K43Q
VL: B1 VL with Q42K, S43A
For the molecule B3, the binding result in test [1] was “binds”.

B4: 1901-1A, LCR1901_VH_1G10m-LCR1901_VK_GLv1_05(H), human IgG4 (S228P) (antibody, V domains shown)
VH: B1 VH with K38R, R40A, K43Q
VL: DIQMTQSPSSLSASVGDRVTITCKASQSVINAVAWYQQKPGKAPKLLIYYASNRYTGVPDRFSGSGYGTDFTFTISSLQAEDVAVYYCQQDYSSPYTFGGGTKVEIKR
notes: the latter are used; also called LCR1901-1A
In the case of B4, the binding result in test [3] is “binds”.

B5: 1901_Glv1 (graft) human IgG1 (antibody, V domains shown)
VH: B1 VH with T28A, K38R, R40A, K43Q, D59N, S61T, E62G, Q65K, L107M, L115S
VL: B1 VL with Q42K, S43A, D60S, Y67S, F73L, A80P, V83F, V85T
notes: Tested as HEK293-6E supernatant; also called LCR1901_GLv1 mAb (IgG1)
As to B5, in test [4], the binding result was “binds”.

B6: 1901-1C Fab (LCR1901_VH_1G10m-LCR1901_VK_GLv1_03(F) expressed as Fab) (Fab, V domains shown)
VH: B1 VH with K38R, R40A, K43Q
VL: B1 VL
For the molecule B6, the binding result in test [1] was “binds”. In addition, binding in test [2] was characterised by a dissociation constant (Kd) of 0.3 nM.

B7: 1901-1C, LCR1901_VH_1G10m-LCR1901_VK_GLv1_03(F), human IgG4 (S228P) (antibody, V domains shown)
VH: B1 VH with K38R, R40A, K43Q
VL: B4 VL with K42Q, A43S
notes: also called LCR1901-1C
Regarding B7, the binding result in test [3] is recorded as “binds”.

B8: 1901-1D, LCR1901_VH_1G10m_03(K)-LCR1901_VK_GLv1_03(F), human IgG4 (S228P) (antibody, V domains shown)
VH: B1 VH
VL: B4 VL with K42Q, A43S
notes: the latter are used; also called LCR1901-1D
For the molecule B8, the binding result in test [3] is listed as “binds”.

B9: 1901_Chimeric (mouse 1901 variable domains fused to human IgG1 Fc) (antibody, V domains shown)
VH: QVLLQQSGPELVKPGASVKISCKASGYAFSSSWIHWVKQRPGKGLEWIGRIYPGDGDTNYTGKFKGKATLTADKSSSTAYMQLSSLTSEDSAVYFCARRMITTQAAMDYWGQGTSVTVSS
VL: SFVMTQTPKFLLVSAGDRVTITCKASQSVINAVAWYQQKPGQSPKLLIYYASNRYTGVPDRFTGNGYGTDFTFTISTVQAEDLAVYFCQQDYSSPYTFGGGTKLEIK
notes: Tested as HEK293-6E supernatant; also called murine chimeras
On to B9, for which the binding result in test [4] was “binds”.

B10: LCR1901_scFv (murine 1901 VH and VL reformatted as soluble scFv) (scFv)
scFv: SFVMTQTPKFLLVSAGDRVTITCKASQSVINAVAWYQQKPGQSPKLLIYYASNRYTGVPDRFTGNGYGTDFTFTISTVQAEDLAVYFCQQDYSSPYTFGGGTKLEIKRTVAARQEGGSGEGGSGESNAAAQVLLQQSGPELVKPGASVKISCKASGYAFSSSWIHWVKQRPGKGLEWIGRIYPGDGDTNYTGKFKGKATLTADKSSSTAYMQLSSLTSEDSAVYFCARRMITTQAAMDYWGQGTSVTVSSASTKAS
notes: Expressed in E. coli from pCHV101 and tested as culture; also called LCR1901_soluble scFv; parental soluble scFv
For the molecule B10, in test [5], the binding result was “binds”.

B11: LCR1901_Phage (murine 1901 scFv fused to the pIII coat protein of filamentous bacteriophage) (scFv)
scFv: B10 scFv
notes: not shown: pIII coat protein of filamentous bacteriophage from the pCHV101 phagemid
As to B11, the binding result in test [6] is on record as “binds”.

B12: LCR1901_GLv1_scFv (murine 1901 CDRs grafted onto IGKV1-39*01/IGHV1-69*08, scFv) (scFv)
scFv: DIQMTQSPSSLSASVGDRVTITCKASQSVINAVAWYQQKPGKAPKLLIYYASNRYTGVPSRFSGSGSGTDFTLTISSLQPEDFATYYCQQDYSSPYTFGGGTKLEIKRTVAARQEGGSGEGGSGESNAAAQVQLVQSGAEVKKPGSSVKVSCKASGYAFSSSWIHWVRQAPGQGLEWIGRIYPGDGDTNYTGKFKGRVTITADKSTSTAYMELSSLRSEDTAVYYCARRMITTQAAMDYWGQGTSVTVSSASTKAS
notes: Expressed in E. coli from pCHV101
Consider B12, for which, in test [7], the binding result is listed as “binds”.
